Laboratory results as given in PMC10397247.

Assays:
Test in all cases: two-hybrid library CCNG1;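 also: natural log of median RNA to DNA barcode read ratio; higher means stronger binding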
4H2745-bN = biological target: T1, 4H2745-bN
T1 chain: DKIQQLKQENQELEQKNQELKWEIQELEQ

4H344-bN = biological target: T2, 4H344-bN
T2 chain: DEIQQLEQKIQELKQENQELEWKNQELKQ

4H363-bN = biological target: T3, 4H363-bN
T3 chain: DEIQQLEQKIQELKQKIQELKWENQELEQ

4H3907-bN = biological target: T4, 4H3907-bN
T4 chain: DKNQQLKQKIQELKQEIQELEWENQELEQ

4H3961-bN = biological target: T5, 4H3961-bN
T5 chain: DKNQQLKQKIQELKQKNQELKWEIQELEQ

4H470-bN = biological target: T6, 4H470-bN
T6 chain: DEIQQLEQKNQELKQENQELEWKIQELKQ

4H850-bA = biological target: T7, 4H850-bA
T7 chain: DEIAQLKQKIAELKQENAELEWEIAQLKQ

4H3070-bN = biological target: T8, 4H3070-bN; settings: mean of both orientations
T8 chain: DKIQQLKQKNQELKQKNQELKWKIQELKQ

4H342-bN = biological target: T9, 4H342-bN
T9 chain: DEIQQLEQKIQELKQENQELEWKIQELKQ

4H3632-bN = biological target: T10, 4H3632-bN
T10 chain: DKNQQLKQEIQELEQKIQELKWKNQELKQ

4H496-bN = biological target: T11, 4H496-bN
T11 chain: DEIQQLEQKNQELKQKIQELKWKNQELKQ

P4mS = biological target: T12, P4mS
T12 chain: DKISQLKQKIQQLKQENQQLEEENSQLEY

P5mS = biological target: T13, P5mS
T13 chain: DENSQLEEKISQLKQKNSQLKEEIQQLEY

P6mS = biological target: T14, P6mS
T14 chain: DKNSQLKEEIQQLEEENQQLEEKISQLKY

P7mS = biological target: T15, P7mS
T15 chain: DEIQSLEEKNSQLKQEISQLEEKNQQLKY

P8mS = biological target: T16, P8mS
T16 chain: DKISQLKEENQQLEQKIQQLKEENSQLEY

P9mS = biological target: T17, P9mS
T17 chain: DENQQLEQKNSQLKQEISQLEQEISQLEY

DKIQQLKQENQELEQKNQELKWEIQELEQ [4H2745-bN]
interaction score (4H2745-bN): -0.754 | interaction score (4H344-bN): -0.786 | interaction score (4H363-bN): -0.693 | interaction score (4H3907-bN): -1.56 | interaction score (4H3961-bN): -0.46 | interaction score (4H470-bN): 1.07 | interaction score (4H850-bA): -0.544

DKIQQLKQKNQELKQKNQELKWKIQELKQ [4H3070-bN]
interaction score (4H3070-bN): -1.41 | interaction score (4H342-bN): 0.751 | interaction score (4H3632-bN): -1.38 | interaction score (4H496-bN): -1.31

DKISQLKQKIQQLKQENQQLEEENSQLEY [P4mS]
interaction score (P4mS): -1.66 | interaction score (P5mS): -1.04 | interaction score (P6mS): -1.48 | interaction score (P7mS): -1.14 | interaction score (P8mS): -1.85 | interaction score (P9mS): -1.28
